A short description of the series: label from the status in PepcDB records.
In the case of “MEYKPMPYPIIDSHCHLDFPKFNPDREEAIQRARKAGVVGMVNSGISLKGNRISLELAEKNEDIHAALGLSPDIGREGSDKDINAILAQIEANAGKAVAIGEAGLDFQDCKTDEERRRQTASFKKVIELAKNLEKPLVVHARMAEAEVLELARDVDTVIYHCYSGSVETMKEIVDAGYYISLATLVCFSEHHQTLAAEVPPENLLLETDSPFLSPRRGRNEPAFIVDSIPVVAEYKEMEPAEIAKFATENARRVFKILEHHHHHH”, the protein production entry is listed as “failed”.

Regarding “MIFMNMIFVDREKELQTLMQRLNSPTFELVIVYGRRRIGKTSLILRAISGRNDSVYYYATERNNLERFREVAQRKFPEVRYAREDWESLLHFLRDKVVIIDEFPYLIEEDKSILSTFQRIVDENRDSRTKLILLGSSISVMEDVLSYRSPLYGRRTASLKVGELKFRDLRHLGFSVEEAVKIYGFAGGVPMYLTRVTPPFLDWVNRELKRVDSFLRDEVDFLLRYEFREIGTYKEILRAISMGKNTLAEIRDYVKVGGEISSYIKKLERIELVTREVPVTESVRSKMGRYVIRDNFTNFWFRFVYPNLSLIEEGTYEITEGEYANYLGHVFERICREYVRDRYRVKKVGRQWWKDVEIDVMGLGNVKVAGECKWSEDVNPHSVLANLERKVERLGHTVDRYVVFARSFSTKEKMEKAELVDINDLNSWFMS”, the protein production result is reported as “failed”.

Take “VTPQGLRIVLQDDYKQHMFSRGGAELTPFFEDLLLALAPLFEQVTNPLIISGHTDAIPFKKRFGRQSNWALSASRADVARKTLVEGGMPDDRVMQVTGMSDRALLNPDEPDSSENRRIELFILTTP”: the protein production result is “failed”.

Take “MKALFFTRMFTLMVSCLMYLSIVKEDNWFGYVFIAAGAAMYAANHVLLTKETNAIWFCLIDIAIGFSFGFIFPGTGLFIIMLCPVAVAFFLRGFPKRTAWSVLCLSSILFLTVLIRTYAMFGNEFVIDHLTSMTFVVFCGVVGKLIRKLLDAQDTAKQQFQELTESHLALSAAHQELHLYAKQVEELTAIYERNRMAREIHDTVGHKMTALLVQLQLLREWQKRDSQKADETVGVCETLAREALDDVRLSVRTLQTENDPSLIESLKQLTEDFCKNAGVTTEFAVSGDPAIIPLSLHPTLIRTVQEALTNAKRHGGAAACSIQLACTTDSISLVIKDDGKGNPEAALGFGLLNMKKRAAEHGGMIRFESERDQGFTVNAEFSLANKKWSFGPVQQKESLS”: the protein production result is “failed”.

“MPRCIIYVDFPCWHPVRQRPLRVRGRFRTFVRSHAFPSPPVSDPSPSSSDASPPDALVIIPTYNEADNIGPVIDQVLEQSPPLSVLVVDDNSTDGTADLVRSKKTDALDRVHLIERSGKLGLGTAYLRGFRYALAQDYTYICEMDADRSHDPNDLPRLIAPVREGEVALAIGSRYVEGVRVINWPLSRLVLSYGAGVYTRAITRLPLLDVTAGFKCFHRRVLETLPLDRVNSDGYAFQVEMHYRTWRAGFPFTEVPVVFTERTEGESKMRREIVVEAALKVWELRLQDLLGRL”: the protein production entry is listed as “failed”.

On to “MKVDVDEKTYIITMANDITKLYEENKRNLHYSITDPLTGAYNRKYLNDRFDIFIGDYIVLIDLDNFKMINDYEGHNVGDKILCDFVSLLNKELINSTSIIRLGGDEFIVIFSSDVDKNYVYSQLEALRENFLKVFSKYKYLSFSYGVDTVKRNLKLTIVELDKKMYKNKEKNKKKFDKNLEHHHHHH”, for which the protein production result is given as “not failed”.

“VDKKAPQISFQARLLRDNVTIFLDFSGRGLFQRGYREHSGAAPLKENLAAALIIRSGWLNDTSKPLVDPMCGSGTILIEAVSMAAKQAPAINRQSWGFEAWLSHDNAVWQKQLTLAIDSSEENMSNLKVKVFGIDIDERVLRTAQQNARNAQLHQYIEFTCKNTNDMDNTFGQPGTILFNPPYGERIGELPELVENFVLFGQKLKMQFKDWRIAILTANVDLLSMLKLSSFKRYKFKNGPLDCQLALYNLDAKQG”: the protein production entry is “failed”.

Take “MLKLFAKYTSIGVLNTLIHWVVFGVCIYVAHTNQALANFAGFVVAVSFSFFANAKFTFKASTTTMRYMLYVGFMGTLSATVGWAADRCALPPMITLVTFSAISLVCGFVYSKFIVFRDAK”: the protein production entry is “failed”.

“MRKSVSRASSIITGLLVMSIGLNSTEYLSIYKLILFNKKTCMKLKTHFVFSIGLLTLASSFFGFSLIISAIISVLGNTLIDRLGHKEISTRYGKIPVRTPLTHTLPRSVFWGLISSMPVIIVLGLAYGMLNTKILTALIDGILVGPSHMLLDVFTENGIYVKRNGKWKRVALAHFSYDSSLINGLAIVLGIIMIFAAMELHH”: the protein production entry was “failed”.
